Here are results for one molecule from US6509033.

This test addresses 'Empty' HLA-DR1 purified from insect cells expressing recombinant DR1 cDNA (human).

By Ki is commonly meant the equilibrium dissociation constant of an inhibitor or competing ligand from its target. In the case of LPKPPKPVSKMRMATPLLMQALPM (modifications not checked) [Invariant Chain (Ii) 98-121], the Ki came to 33 nM.
